Assay results from patent US12366576B2, “Compositions, assays, and methods for direct modulation of fatty acid metabolism” (Dana-Farber Cancer Institute, Inc., priority 2016, dated 2025).
Bridge positions count the residues as written; N and C are the ends. Square brackets hold non-standard residues; d marks the D form. Ends that are not written are not given here. Peptide text beside a SMILES is read from it. S5 = C=CCCC[C@](C)(N)C(=O)O

Target: T1, native VLCAD (Mus musculus, UniProt P50544)
T1 construct: As for native VLCAD from MEF lysates; endogenous in cells; host or cells: SV-40-transformed wild-type mouse embryonic fibroblasts (lysate)
T1 sequence (P50544 42-656): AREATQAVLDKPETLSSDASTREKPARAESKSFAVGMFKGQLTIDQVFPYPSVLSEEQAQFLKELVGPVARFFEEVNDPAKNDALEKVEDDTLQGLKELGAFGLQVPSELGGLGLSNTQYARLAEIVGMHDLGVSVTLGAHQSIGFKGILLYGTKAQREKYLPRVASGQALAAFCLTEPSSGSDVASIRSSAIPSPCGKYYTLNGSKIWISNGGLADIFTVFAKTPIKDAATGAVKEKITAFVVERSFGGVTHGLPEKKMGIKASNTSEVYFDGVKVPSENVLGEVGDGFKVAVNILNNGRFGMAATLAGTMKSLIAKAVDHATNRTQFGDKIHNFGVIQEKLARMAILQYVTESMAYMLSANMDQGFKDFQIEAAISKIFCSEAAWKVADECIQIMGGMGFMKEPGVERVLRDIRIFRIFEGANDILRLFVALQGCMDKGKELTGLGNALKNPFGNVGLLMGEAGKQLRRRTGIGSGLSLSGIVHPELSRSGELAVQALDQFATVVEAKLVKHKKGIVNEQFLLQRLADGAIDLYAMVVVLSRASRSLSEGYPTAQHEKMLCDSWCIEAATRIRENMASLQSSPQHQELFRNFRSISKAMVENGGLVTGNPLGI
Experiment: Biotinylated SAHB pulldown from MEF lysates, anti-VLCAD Western analysis
Type: binding
Details: for summary of binding properties: binding to VLCAD: pull-downs and ITC; for best overall binders to VLCAD based on pull-downs and ITC: summary of binding properties
Excerpt: To validate the MS result, the pulldowns were repeated and eluates run on a gel for anti-VLCAD Western blot analysis. […] All peptides faithfully recapitulated native BH3-binding propensities for endogenous MCL-1 protein (FIG. 8). The eluates were then probed for the other members of the acyl-CoA dehydrogenase family that manifest shorter fatty acid substrate specificities. MCL-1 SAHBD was able to pull down VLCAD, but not MCAD or SCAD (FIG. 9). Because the traditional MCL-1 staple location differs from that of the BIM, BID, and BAD SAHBs, it was important to confirm that the observed VLCAD binding specificity was due to BH3 sequence selectivity, not staple position. A BIM SAHB with the traditional MCL-1 staple (BIM SAHBF), and a MCL-1 stapled peptide with the traditional BIM staple (MCL-1 SAHBA), were generated. […] To confirm that the selective interaction between MCL-1 SAHBD and VLCAD is direct, recombinant VLCAD was generated and purified by size exclusion chromatography (FIGS. 11 and 12).
The binding determinants for the MCL-1 BH3/VLCAD interaction were investigated by generating a series of biotinylated MCL-1 SAHBD alanine point mutants (FIG. 18A) and performing streptavidin pull-downs from MEF lysates, followed by VLCAD and MCL-1 western analysis of the resulting eluates. […] Native alanines and residues not mutated are colored white. The dotted semicircles highlight the distinctive MCL-1 BH3 binding interfaces for VLCAD versus MCL-1 engagement, as defined by the differential sensitivities to alanine mutagenesis.
Wild-type MEFs were trypsinized, washed once with cold PBS, and lysed on ice with NP-40 lysis buffer (50 mM Tris, pH 7.4, 150 mM NaCl, 0.5% (v/v) NP-40, complete protease inhibitor pellet (Roche)) using 1 ml of lysis buffer for every 10 million cells lysed. Cellular debris was pelleted at 14,000 g for 10 min at 4° C., and the supernatant was quantified using the BCA Protein Assay Kit (Thermo Fisher Scientific). 2 mg of lysate per pulldown were then exposed to 50 μL of pre-equilibrated High Capacity Streptavidin Agarose beads (Thermo Fisher Scientific). The pre-cleared lysates were then incubated with 15 nmol biotinylated SAHBs (or vehicle, 1.5% (v/v) DMSO) overnight at 4° C., followed by addition of 50 μL of pre-equilibrated High Capacity Streptavidin Agarose beads for 2 hours at 4° C. The beads were then pelleted and washed with NP-40 lysis buffer three times before eluting the protein sample from the beads by heating at 70° C. for 10 min in SDS loading buffer. Samples were then subjected to electrophoresis and either Western analysis or Coomassie stain (SimplyBlue Safe Stain, Thermo Fisher Scientific). The antibodies used for Western analysis were the following: MCL-1 (Rockland 600-401-394; 1:1000 in 3% BSA), VLCAD (Thermo Fisher Scientific PA5-29959; 1:1000 in 1% milk+0.1% Tween-20), MCAD (Thermo Fisher Scientific PA5-27201; 1:1000 in 3% BSA), and SCAD (Abcam ab154823; 1:1000 in 3% BSA). Coomassie stained gels were then processed for proteomics analysis (see below). Biotinylated SAHB pulldowns of recombinant protein were performed as above incubating 5 nmol of SAHB with 10 pmol of rVLCAD in 500 μL total volume. Densitometry analyses were performed using ImageJ software.

Row | Molecule | summary of binding properties: binding to VLCAD | effect of alanine mutation on biotinylated MCL-1 SAHBD interaction with VLCAD (pull-downs from MEF lysates) | best overall binders to VLCAD based on pull-downs and ITC | pull down of VLCAD from cellular lysates (wild-type MEF lysates, 15 nmol biotinylated SAHB)
1 | R214A: biotinylated MCL-1 SAHBD alanine point mutant R214A (RKALETLARVGDGV[S5]RNH[S5]TAF; staple 15-19; also: biotinylated, place not given here) | Does not bind |  |  | 
2 | MCL-1 SAHBD: hydrocarbon-stapled peptide mimicking the MCL-1 BH3 domain (Stabilized Alpha-Helix of BCL-2 Domain), SEQ ID NO:19 (RKALETLRRVGDGV[S5]RNH[S5]TAF; staple 15-19) | Binds |  |  | VLCAD was detected
3 | F228A: biotinylated MCL-1 SAHBD alanine point mutant F228A (RKALETLRRVGDGV[S5]RNH[S5]TAA; staple 15-19; also: biotinylated, place not given here) | Does not bind |  |  | 
4 | L213A: biotinylated MCL-1 SAHBD alanine point mutant L213A (RKALETARRVGDGV[S5]RNH[S5]TAF; staple 15-19; also: biotinylated, place not given here) | Does not bind | disrupted |  | 
5 | CC(=O)N[C@@H](CCCNC(=N)N)C(=O)N[C@@H](CCCCN)C(=O)N[C@@H](C)C(=O)N[C@@H](CC(C)C)C(=O)N[C@@H](CCC(=O)O)C(=O)N[C@H](C(=O)N[C@@H](CC(C)C)C(=O)N[C@@H](CCCNC(=N)N)C(=O)N[C@@H](CCCNC(=N)N)C(=O)N[C@H](C(=O)NCC(=O)N[C@@H](CC(=O)O)C(=O)NCC(=O)N[C@@H](C)C(=O)N[C@@]1(C)CCCC=CCCC[C@@](C)(C(=O)N[C@H](C(=O)N[C@@H](C)C(=O)N[C@@H](Cc2ccccc2)C(N)=O)[C@@H](C)O)NC(=O)[C@H](Cc2c[nH]cn2)NC(=O)[C@H](CC(N)=O)NC(=O)[C@H](CCCNC(=N)N)NC1=O)C(C)C)[C@@H](C)O [V220A] (Ac-RKALETLRRVGDGA[S5]RNH[S5]TAF-NH2; staple 15-19; N-terminus and C-terminus assumed) | Binds |  | Best overall binders to VLCAD | 

Now from value to molecule, other results behind:

Row | summary of binding properties: binding to VLCAD | effect of alanine mutation on biotinylated MCL-1 SAHBD interaction with VLCAD (pull-downs from MEF lysates) | best overall binders to VLCAD based on pull-downs and ITC | Molecule | pull down of VLCAD from cellular lysates (wild-type MEF lysates, 15 nmol biotinylated SAHB)
6 | weakly or not |  |  | R215A: biotinylated MCL-1 SAHBD alanine point mutant R215A (RKALETLRAVGDGV[S5]RNH[S5]TAF; staple 15-19; also: biotinylated, place not given here) | 
7 | Does not bind |  |  | R207A: biotinylated MCL-1 SAHBD alanine point mutant R207A (AKALETLRRVGDGV[S5]RNH[S5]TAF; staple 15-19; also: biotinylated, place not given here) | 
8 | Binds |  | Best overall binders to VLCAD | D218A: biotinylated MCL-1 SAHBD alanine point mutant D218A (RKALETLRRVGAGV[S5]RNH[S5]TAF; staple 15-19; also: biotinylated, place not given here) | 
